Reference: paper PMC3352918, “Mechanism of Nucleic Acid Unwinding by SARS-CoV Helicase” (PLoS ONE, 2012)

Target: T1, GST-nsp13 (Glutathione S-Transferase-tagged nsp13 of SARS-CoV) (SARS-CoV, UniProt P0C6X7 5302-5902)
T1 construct: also called SARS-CoV helicase; non-structural protein 13; not shown: GST, N-terminal, kept
Test: pull-down
Conditions: both partners purified

B1: nsp12-H6 (C-terminal hexahistidine containing nsp12, SARS-CoV RNA-dependent RNA polymerase) (enzyme)
chain: SADASTFLNRVCGVSAARLTPCGTGTSTDVVYRAFDIYNEKVAGFAKFLKTNCCRFQEKDEEGNLLDSYFVVKRHTMSNYQHEETIYNLVKDCPAVAVHDFFKFRVDGDMVPHISRQRLTKYTMADLVYALRHFDEGNCDTLKEILVTYNCCDDDYFNKKDWYDFVENPDILRVYANLGERVRQSLLKTVQFCDAMRDAGIVGVLTLDNQDLNGNWYDFGDFVQVAPGCGVPIVDSYYSLLMPILTLTRALAAESHMDADLAKPLIKWDLLKYDFTEERLCLFDRYFKYWDQTYHPNCINCLDDRCILHCANFNVLFSTVFPPTSFGPLVRKIFVDGVPFVVSTGYHFRELGVVHNQDVNLHSSRLSFKELLVYAADPAMHAASGNLLLDKRTTCFSVAALTNNVAFQTVKPGNFNKDFYDFAVSKGFFKEGSSVELKHFFFAQDGNAAISDYDYYRYNLPTMCDIRQLLFVVEVVDKYFDCYDGGCINANQVIVNNLDKSAGFPFNKWGKARLYYDSMSYEDQDALFAYTKRNVIPTITQMNLKYAISAKNRARTVAGVSICSTMTNRQFHQKLLKSIAATRGATVVIGTSKFYGGWHNMLKTVYSDVETPHLMGWDYPKCDRAMPNMLRIMASLVLARKHNTCCNLSHRFYRLANECAQVLSEMVMCGGSLYVKPGGTSSGDATTAYANSVFNICQAVTANVNALLSTDGNKIADKYVRNLQHRLYECLYRNRDVDHEFVDEFYAYLRKHFSMMILSDDAVVCYNSNYAAQGLVASIKNFKAVLYYQNNVFMSEAKCWTETDLTKGPHEFCSQHTMLVKQGDDYVYLPYPDPSRILGAGCFVDDIVKTDGTLMIERFVSLAIDAYPLTKHPNQEYADVFHLYLQYIRKLHDELTGHMLDMYSVMLTNDNTSRYWEPEFYEAMYTPHTVLQ
notes: also called SARS-CoV polymerase; SARS-CoV RdRp
- binding result: binds
